These results are taken from patent publication US20190315864A1.

For this test, the target named is Mouse CTLA4-Fc protein (mouse). Kind of test: ELISA, control VHH coated 0.5 µg/well, mouse CTLA4-Fc (biotinylated), SA-HRP; blank 0.027.
Chain of Mouse CTLA4-Fc protein (mouse) (chain, as listed by the source limits assumed): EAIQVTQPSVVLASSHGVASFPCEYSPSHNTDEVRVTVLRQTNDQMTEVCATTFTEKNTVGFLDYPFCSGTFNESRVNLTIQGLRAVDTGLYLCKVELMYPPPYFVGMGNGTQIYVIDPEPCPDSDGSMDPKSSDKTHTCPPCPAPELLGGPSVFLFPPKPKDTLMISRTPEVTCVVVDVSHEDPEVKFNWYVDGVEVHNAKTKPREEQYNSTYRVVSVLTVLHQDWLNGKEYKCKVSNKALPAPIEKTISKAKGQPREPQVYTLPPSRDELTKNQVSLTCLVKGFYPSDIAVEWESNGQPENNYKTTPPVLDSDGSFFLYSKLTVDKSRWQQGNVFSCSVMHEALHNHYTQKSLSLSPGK

The substance “single domain antibody against other unrelated target (control) (VHH)” registered an OD (against mouse CTLA4) of 0.026 OD405.
